Three molecules from patent US20220193186A1, “METHOD OF TREATING AND PREVENTING BONE AND JOINT INFECTIONS” (CONTRAFECT CORPORATION, priority 2019, published 2022) can be followed below.

Numbering of substitutions follows the chain as printed. Names and notes keep the numbering of the source. Values after ≈ are worked out from the molar mass of the structure shown.

The test system of series [1] is MRSA IDRL-6169 biofilm. Briefly: Minimum biofilm inhibitory and bactericidal concentrations. Format: cell-based, Staphylococcus aureus. The following applies: CF-301 testing with 0.5 mM DL-dithiothreitol and 25% horse serum.
Series [2] concerns MRSA IDRL-6169. The experiment in a line: MIC by broth microdilution. Format: cell-based, Staphylococcus aureus. The following applies: MRSA IDRL-6169, broth microdilution, CF-301 testing with 0.5 mM DL-dithiothreitol and 25% horse serum.
A short description of series [3]: Body weight of rats in osteomyelitis model (Example 6). It counts as in vivo, Sprague Dawley rats. The note with it: mean; for Body weight on Day 1: time of surgery (before treatment); for Body weight on Day 8: immediately prior to treatment; for Body weight on Day 12: time of sacrifice, without or with DAP 60 mg/kg. The protocol: (§1) The following six treatment groups were identified: (1) control/no treatment (n=18); (2) 60 mg/kg daptomycin (DAP) administered subcutaneously twice daily for 4 days (n=17); (3) 40 mg/kg pp296 administered intravenously daily for 4 days (n=17); (4) 40 mg/kg pp296 administered intravenously daily for 4 days plus 60 mg/kg DAP administered subcutaneously twice daily for 4 days (n=17); (5) 100 mg/kg pp296 administered intravenously once as a single dose on treatment day 1 (n=17); and (6) 100 mg/kg pp296 administered intravenously once as a single dose on treatment day 1 plus 60 mg/kg DAP administered subcutaneously twice daily for 4 days (n=17). When daptomycin was administered together with pp296, it was given 15 minutes prior to pp296, which was maintained on ice.
Additionally, body weights of the animals were monitored as a marker of general health status during the study. The mean body weight of the animals at the time of surgery (day 1), immediately prior to treatment (day 8), and at the time of sacrifice (day 12) are shown below in Table 5.

For series [4], the system named is methicillin-resistant Staphylococcus aureus IDRL-6169. The experiment in a line: Rat osteomyelitis model, quantitative culture of tibia (Example 6). It counts as in vivo, Sprague Dawley rats. The note with it: for Mean log10 CFU/g / Median log10 CFU/g: rat tibia bone; for Mean log10 CFU/g reduction: vs no treatment. The protocol:
Agents Chemother. 2019 Sep. 23; 63(10). Specifically, osteomyelitis was established in the rats by bending the knee joint, inserting a 21G needle into the tibial process, and injecting 10 μl […] and 50 μl of about 10^6-10^8 colony forming units (cfu) suspension of methicillin-resistant Staphylococcus aureus IDRL-6169.
as §1
Animals were sacrificed twelve hours after the last treatment was administered, and the tibia were collected, weighed, and cryopulverized for quantitative bacterial culture. The log10 CFU counts/g of tibia bone was determined using the Wilcoxon rank sum test, adjusted with a false discovery rate approach.

The test system of series [5] is MRSA IDRL-6169. The experiment in a line: Acute MRSA osteomyelitis in rats, quantitative culture of tibia (Example 4). It counts as in vivo, Sprague Dawley rats. The note with it: rat tibia, daptomycin 60 mg/kg i.p. every 12 hours for four days, CF-301 single dose 40 mg/kg tail vein; for mean (±SD) bacterial density: Day 12 (4 days after start of therapy); for reduction compared to untreated rats: Day 12.

Series [6] relates to S. epidermidis isolate NRS6 biofilms. The experiment in a line: Disruption of biofilms formed in human synovial fluid (fluorescent imaging). It counts as cell-based. The protocol: Macroscopic analysis of CF-301 activity on biofilms, which were formed in human synovial fluid, was performed in the manner described in Dastgheyb et al. (2015) JID 211:641-50 and Dastgheyb et al. (2015) AAC 59:e04579-14. Briefly, 10^8 CFUs of S. epidermidis isolate NRS6 were incubated for 24 hours at 37° C. in 24-well plates containing HSF. After biofilm formation, the wells were stained with ethidium bromide (EtBr) and treated with 0.1 or 1 μg/mL CF-301 for 2 hours. The biofilms were visualized by UV fluorescent imaging. Untreated controls were also examined.
The biofilms were also stained with Alexa Flour^488-WGA, which stained the exopolysaccharide in the biofilms (and individual bacteria) and propidium iodide (PI) which stained the entire biofilm. The biofilms were then visualized by fluorescence microscopy. As evidenced in FIG. 3, the S. epidermidis biofilms formed in HSF were eliminated after two hours of treatment with 0.1 ug/mL or 1 ug/mL CF-301.

Series [7] relates to multiple drug resistant (MDR) Staphylococcus epidermidis prosthetic knee infection. Briefly: CF-301 during arthroscopic DAIR in patients with prosthetic knee infection.
For series [8], the system named is S. epidermidis clinical isolates. The experiment in a line: MIC by broth microdilution (CLSI) in caMHB-HSF and caMHB-HSD. It counts as cell-based. The note with it: S. epidermidis (N = 53). The source says:
More particularly MIC values for a lysin may be determined against e.g., S. epidermidis or S. aureus in e.g., Mueller-Hinton broth (MHB) supplemented with physiological salt concentrations and synovial fluid, such as human synovial fluid. Minimum Inhibitory Concentrations (MICs) of a lysin against e.g., S. epidermidis may be determined using broth microdilution (BMD) following Clinical and Laboratory Standards Institute (CLSI) methodology (M07-A11, 2018, which is herein incorporated by reference in its entirety) in a non-standard medium (caMHB supplemented to 50% with human synovial fluid (caMHB-HSF)). See Examples.
Minimum Inhibitory Concentrations (MICs) of the CF-301 lysin (SEQ ID NO: 1) against S. epidermidis were determined using broth microdilution (BMD) following CLSI methodology (M07-A11, 2018) in a non-standard medium (caMHB supplemented to 25% with horse serum and 0.5 mM with DTT (caMHB-HSD)) approved for use by the CLSI in antimicrobial susceptibility testing with CF-301 (CLSI, AST Subcommittee Meeting, January, 2018). Activity of CF-301 against S. epidermidis in HSF (Discovery Life Sciences) was similarly determined using BMD in caMHB with 50% HSF (caMHB-HSF). The caMHB-HSF supports the growth and biofilm formation of S. epidermidis as well as S. aureus.

For series [9] the following is noted: after a single dose of 10 mg/kg.
For series [10], the system named is S. aureus (MRSA strains MW2, ATCC BAA-42). The experiment in a line: MIC by broth microdilution (CLSI) in caMHB-HSF and caMHB-HSD. Format: cell-based.
Series [11] can be described thus: Pathological slides, rat osteomyelitis model (Example 6). It counts as in vivo, Sprague Dawley rats. The note with it: rats, pp296 line: 40 mg/kg daily dosing (Treatment Group 3). The source says: These findings are consistent with acute osteomyelitis, and no appreciable differentiation between groups could be made.
Where [12] appears, read: DAP 60 mg/kg s.c. twice daily for 4 days.
Setting [13] is: CF-301 into the joint during arthroscopic DAIR, daptomycin, linezolid then suppressive tedizolid.
[14] abbreviates: caMHB-HSD (25% horse serum, 0.5 mM DTT).
Setting [15] is: caMHB-HSF (50% human synovial fluid).
Where [16] appears, read: groups pp296 40 mg/kg, without or with DAP.
Where [17] appears, read: groups pp296 100 mg/kg, without or with DAP.
Where [18] appears, read: pp296 40 mg/kg i.v. daily for 4 days (combination: plus DAP 60 mg/kg s.c. twice daily for 4 days).
[19] abbreviates: pp296 100 mg/kg i.v. single dose on treatment day 1 (combination: plus DAP 60 mg/kg s.c. twice daily for 4 days).

Regarding `CCCCCCCCCC(=O)N[C@@H](Cc1c[nH]c2ccccc12)C(=O)N[C@H](CC(N)=O)C(=O)N[C@@H](CC(=O)O)C(=O)N[C@@H]1C(=O)NCC(=O)N[C@@H](CCCN)C(=O)N[C@@H](CC(=O)O)C(=O)N[C@H](C)C(=O)N[C@@H](CC(=O)O)C(=O)NCC(=O)N[C@H](CO)C(=O)N[C@@H]([C@H](C)CC(=O)O)C(=O)N[C@@H](CC(=O)c2ccccc2N)C(=O)O[C@@H]1C` [daptomycin, reference compound], in series [1], the “Minimum biofilm inhibitory concentration” value was found to be 1 µg/mL and the “minimum biofilm bactericidal concentration” value was 2 µg/mL. In [2] (Staphylococcus aureus, read-out: minimum inhibitory concentration), the MIC stood at 0.5 µg/mL (≈ 0.309 µM). In series [3] (group DAP 60 mg/kg), the Body weight on Day 1 was determined as 339 g. In [4] (setting [12]), the “Mean log10 CFU/g” value worked out at 4.29 log10 CFU/g, the “Median log10 CFU/g” value amounted to 4.79 log10 CFU/g and the “Mean log10 CFU/g reduction” value was −1.14 log10 CFU/g. In [5], the “mean (±SD) bacterial density” value is 4.09 (±0.37) log10 cfu/gram of bone and the “reduction compared to untreated rats” value was 1.04 log10 cfu/gram of bone.

B1: CF-301: PlySs2 lysin of SEQ ID NO: 1, anti-staphylococcal lysin encoded within a prophage of the Streptococcus suis genome (protein, listed as Streptococcus suis)
chain: MTTVNEALNNVRAQVGSGVSVGNGECYALASWYERMISPDATVGLGAGVGWVSGAIGDTISAKNIGSSYNWQANGWTVSTSGPFKAGQIVTLGATPGNPYGHVVIVEAVDGDRLTILEQNYGGKRYPVRNYYSAASYRQQVVHYITPPGTVAQSAPNLAGSRSYRETGTMTVTVDALNVRRAPNTSGEIVAVYKRGESFDYDTVIIDVNGYVWVSYIGGSGKRNYVATGATKDGKRFGNAWGTFK
In the case of B1, in series [1], the “Minimum biofilm inhibitory concentration” value was determined as 1 µg/mL and the “minimum biofilm bactericidal concentration” value was found to be 4 µg/mL. Further, the “ethidium bromide staining of biofilm structures formed by NRS6 in human synovial fluid” value in series [6] (0.1 or 1 μg/mL CF-301 for 2 hours, UV fluorescent imaging, FIG. 2) was “eliminated”. Also, the “S. epidermidis biofilms formed in HSF, Alexa Fluor 488-WGA / propidium iodide fluorescence microscopy” value in series [6] (two hours of treatment with 0.1 ug/mL or 1 ug/mL CF-301, FIG. 3) is listed as “eliminated”. Also, the minimum inhibitory concentration in series [2] is 0.5 µg/mL. Further, in series [7] (setting [13]), the “outcome after 1 year follow up in the two septic arthritis patients” value was “favorable” and the “outcome at 6 months in the two patients with fistula at baseline” value is listed as “recurrence of the fistula”. Besides, the “adverse events during arthroscopy” value in series [7] (four patients, CF-301 (75 mg/mL; 30 mL) into the joint during arthroscopy, followed by antibiotics) was “No adverse events”. For the same molecule, in [8] (setting [14]), the “CF-301 MIC, MIC50” value was 0.5 µg/mL; the “CF-301 MIC, MIC90” value was 0.5 µg/mL; the “CF-301 MIC, Range” value fell in the range of 0.25 to 2 µg/mL. In [8] (setting [15]), the “CF-301 MIC, MIC50” value was 0.015 µg/mL; the “CF-301 MIC, MIC90” value came to 0.125 µg/mL; the “CF-301 MIC, Range” value was 0.0078 to 2 µg/mL. The “Levels of CF-301 in bone relative to plasma levels” value in series [9] was 10-15%. The “CF-301 MIC” value in series [10] (S. aureus strain ATCC BAA-42, caMHB-HSD) is 0.5 µg/mL. Moreover, the “CF-301 MIC” value in series [10] (S. aureus strain ATCC BAA-42, caMHB-HSF) was 0.03 µg/mL. For the same molecule, the “CF-301 MIC” value in series [10] (S. aureus strain MW2, caMHB-HSD) was 0.5 µg/mL. Also, the “CF-301 MIC” value in series [10] (S. aureus strain MW2, caMHB-HSF) was found to be 0.03 µg/mL. In addition, in [5], the “mean (±SD) bacterial density” value was 4.65 (±0.65) log10 cfu/gram of bone and the “reduction compared to untreated rats” value is on record as 0.65 log10 cfu/gram of bone.

B2: pp296: modified PlySs2 lysin, SEQ ID NO: 6; L92W, V104S, V128T and Y137S, Y164K, N184D, S198Q (protein)
chain: B1 chain with L92W, V104S, V128T, Y137S, Y164K, N184D, S198Q
On to B2, for which the Body weight on Day 8 in [3] (setting [16]) stood at 313 g; in [3] (setting [17]) it was 312 g. Moreover, the Body weight on Day 12 was 311 g in [3] (pp296 40 mg/kg i.v. daily for 4 days) and 312 g in series [3] (pp296 100 mg/kg i.v. single dose). For the same molecule, the Body weight on Day 1 was 342 g in series [3] (setting [16]) and 344 g in [3] (setting [17]). The figures for the “Mean log10 CFU/g” value in [4] (setting [18]) and in [4] (setting [19]) were 4.94 log10 CFU/g and 4.81 log10 CFU/g, respectively. For the same molecule, the “Median log10 CFU/g” value in series [4] (setting [18]) came to 5.27 log10 CFU/g; in series [4] (setting [19]), 4.99 log10 CFU/g. For the same molecule, the “Mean log10 CFU/g reduction” value is −0.49 log10 CFU/g in [4] (setting [18]) and −0.61 log10 CFU/g in series [4] (setting [19]). Moreover, the “Pathological slides (marrow cellularity)” value in series [11] was “only possible hypercellularity”.
